Each block holds one molecule with its values, some of them ahead of it.
Columns and labels:
[1] = biological target: T1, LGR5 (Homo sapiens, UniProt O75473); experiment: FACS binding of RSPO-Fc fusion proteins to LGR5 expressed on HEK-293 cells; conditions: Fc fusion proteins 10 μg/ml
T1 construct: ligating amino acids 22-564 of human LGR5 to an N-terminal FLAG tag; expressed in transfected cells; host or cells: HEK-293
T1 sequence (O75473 22-564): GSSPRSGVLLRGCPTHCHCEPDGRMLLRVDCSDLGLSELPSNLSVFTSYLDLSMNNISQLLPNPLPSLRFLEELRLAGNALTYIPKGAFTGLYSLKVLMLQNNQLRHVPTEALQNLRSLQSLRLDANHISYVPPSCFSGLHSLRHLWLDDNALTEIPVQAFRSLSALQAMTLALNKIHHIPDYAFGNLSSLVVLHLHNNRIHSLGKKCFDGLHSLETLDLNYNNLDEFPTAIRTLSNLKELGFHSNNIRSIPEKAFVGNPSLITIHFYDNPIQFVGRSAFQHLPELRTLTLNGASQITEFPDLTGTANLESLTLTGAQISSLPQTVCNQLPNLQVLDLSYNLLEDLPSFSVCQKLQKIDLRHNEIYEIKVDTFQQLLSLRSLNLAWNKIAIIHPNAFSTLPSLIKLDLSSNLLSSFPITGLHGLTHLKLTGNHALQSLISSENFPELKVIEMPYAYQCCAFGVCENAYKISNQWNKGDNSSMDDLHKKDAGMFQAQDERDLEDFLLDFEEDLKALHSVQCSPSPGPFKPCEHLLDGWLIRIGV
Excerpt: A cell surface LGR5 protein was generated by ligating amino acids 22-564 of human LGR5 to an N-terminal FLAG tag and to the transmembrane domain of CD4 and a C-terminal GFP protein tag using standard recombinant DNA techniques (FLAG-LGR5-CD4TM-GFP). RSPO-Fc constructs were generated using standard recombinant DNA techniques. Specifically, full-length human RSPO1, RSPO2, RSPO3 and RSPO4 were ligated in-frame to a human Fc region and the recombinant RSPO-Fc proteins were expressed in insect cells using baculovirus. The fusion proteins were purified from the insect medium using protein A chromatography.
(§1) HEK-293 cells were transiently transfected with the FLAG-LGR5-CD4TM-GFP construct. After 48 hours, transfected cells were suspended in ice cold PBS containing 2% FBS and heparin and incubated on ice in the presence of 10 μg/ml RSPO1-Fc, RSPO2-Fc, RSPO3-Fc, RSPO4-Fc, or FZD8-Fc fusion proteins for 15 minutes. A second incubation with 100 μl PE-conjugated anti-human Fc secondary antibody was performed to detect cells bound by the Fc fusion proteins. Cells were incubated with an anti-FLAG antibody (Sigma-Aldrich, St. Louis, Mo.) as a positive control and with an anti-PE antibody as a negative control. The cells were analyzed on a FACSCalibur instrument (BD Biosciences, San Jose, Calif.) and the data was processed using FlowJo software.

[2] = test system: RSPO1-induced β-catenin signaling; experiment: TOPflash luciferase assay in HEK-293 cells, Wnt3a plus human RSPO1; assay type: cell-based; conditions: Wnt3a 5 ng/ml, RSPO1 10 ng/ml; antibodies 10 to 0.625 μg/ml
Description: HEK-293 cells were transfected with a 6×TCF-luciferase reporter vector (TOPflash, Millipore, Billerica, Mass.). After 24-48 hrs, the transfected HEK-293 cells were incubated with a combination of Wnt3a (5 ng/ml) and human RSPO1 (10 ng/ml, R&D BioSystems) in the presence of anti-RSPO1 antibodies 89M2, 89M4, 89M5, 89M7, 89M19, and 89M25, or 2 irrelevant control antibodies 254M14 and 254M26 (2-fold dilutions at 10 μg/ml to 0.625 μg/ml). The cells were incubated for 16 hours and luciferase activity was measured using Steady-Glo® Luciferase Assay System according to the manufacturer's instructions (Promega, Madison, Wis.).

[3] = biological target: T2, binding of RSPO1 to LGR5 (Homo sapiens, UniProt Q2MKA7); experiment: FACS: blocking of soluble RSPO1-Fc binding to LGR5 on HEK-293 cells; conditions: RSPO1-Fc 10 μg/ml, antibodies 10 μg/ml
T2 construct: full-length human RSPO1, RSPO2, RSPO3 and RSPO4 were ligated in-frame to a human Fc region; made in house; host or cells: RSPO1-Fc: insect cells (baculovirus); LGR5 construct: transiently transfected HEK-293
T2 sequence (Q2MKA7 21-263): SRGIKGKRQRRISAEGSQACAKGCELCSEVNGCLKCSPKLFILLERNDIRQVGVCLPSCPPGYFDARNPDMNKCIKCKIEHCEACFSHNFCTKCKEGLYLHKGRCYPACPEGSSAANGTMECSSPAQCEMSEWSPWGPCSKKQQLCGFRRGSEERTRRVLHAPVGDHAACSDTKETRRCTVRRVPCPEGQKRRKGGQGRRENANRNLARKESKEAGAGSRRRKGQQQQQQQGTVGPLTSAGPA
Description: HEK-293 cells were transiently transfected with the FLAG-LGR5-CD4TM-GFP construct (previously described in Example 2). After 48 hours, transfected cells were suspended in ice cold PBS containing 2% FBS and heparin and incubated on ice in the presence of RSPO1-Fc protein (10 μg/ml) and antibodies 89M2, 89M4, 89M5, 89M7, 89M19 or 89M25 (10 μg/ml). A second incubation with 100 μl PE-conjugated anti-human Fc secondary antibody was performed to detect cells bound by the RSPO1-Fc fusion protein. The cells were analyzed on a FACSCalibur instrument (BD Biosciences, San Jose, Calif.) and the data was processed using FlowJo software.

[4] = biological target: T3, human RSPO1 (Homo sapiens, UniProt Q2MKA7); experiment: FACS screening of hybridoma supernatants on HEK-293 cells expressing FLAG-RSPO1furin-CD4TM-GFP; assay type: binding
T3 construct: followed by the two furin-like domains of RSPO1 (aa 34-135); expressed in transfected cells; host or cells: HEK-293
T3 sequence (Q2MKA7 34-135): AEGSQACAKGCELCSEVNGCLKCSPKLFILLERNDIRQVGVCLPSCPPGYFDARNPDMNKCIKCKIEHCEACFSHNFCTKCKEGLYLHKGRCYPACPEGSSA
Excerpt: Antibodies were generated against recombinant human RSPO1 protein amino acids 31-263 (R&D Systems, Minneapolis, Minn.). Mice (n=3) were immunized with RSPO1 protein using standard techniques. Sera from individual mice were screened against RSPO1 approximately 70 days after initial immunization using FACS analysis. The animal with the highest antibody titer was selected for final antigen boost after which spleen cells were isolated for hybridoma production. SP2/0 cells were used as fusion partners for the mouse spleen cells. Hybridoma cells were plated at 1 cell per well in 96 well plates, and the supernatants were screened against human RSPO1 by FACS analysis.
For FACS screening of anti-RSPO1 antibodies a chimeric fusion protein enabling cell surface expression of the N-terminal furin-like domains of human RSPO1 was constructed.
as §1, with “were” for “were transiently”, “FLAG-RSPOlfurin-CD4TM-GFP.” for “the FLAG-LGR5-CD4TM-GFP construct.”, “50 μl of hybridoma supernatants” for “10 μg/ml RSPO1-Fc, RSPO2-Fc, RSPO3-Fc, RSPO4-Fc, or FZD8-Fc fusion proteins”, “30” for “15”, “antibody.” for “the Fc fusion proteins.”, “and” for “and with”

[5] = test system: OV19 ovarian tumor cells; experiment: OV19 ovarian tumor xenograft growth in NOD/SCID mice; assay type: in vivo; conditions: day 35, vs control antibody; antibodies 15 mg/kg once a week, intraperitoneal
Description: Dissociated OV19 ovarian tumor cells (1×10^5cells) were injected in the mammary fat pads of 6-8 week old NOD/SCID mice. Tumors were allowed to grow for 45 days until they reached an average volume of 134 mm^3. The mice were randomized (n=10 per group) and treated with anti-RSPO1 antibody 89M5, 89M25, taxol, a combination of 89M5 and taxol, a combination of 89M25 and taxol, or control antibody 1B7.11. Antibodies were dosed at 15 mg/kg once a week, and taxol was dosed at […] once a week. Administration of the antibodies and taxol was performed via injection into the intraperitoneal cavity. Tumor growth was monitored and tumor volumes were measured with electronic calipers at the indicated time points. Data are expressed as mean±S.E.M.

[6] = biological target: T3, human RSPO1; experiment: FACS binding of 89M5 and humanized 89M5 to HEK293 cells expressing FLAG-RSPO1furin-CD4TM-GFP; conditions: five-fold serial dilutions
Description: HEK293 cells were transiently transfected with an expression vector encoding FLAG-RSPO1furin-CD4TM-GFP. As described in Example 5, FLAG-RSPO1furin-CD4TM-GFP is a chimeric fusion protein enabling cell surface expression of the N-terminal furin-like domains of human RSPO1. FLAG-RSPO1 furin-CD4TM-GFP transfected cells were incubated in the presence of anti-RSPO1 antibody 89M5 or humanized anti-RSPO1 antibody h89M5-H2L2. Five-fold serial dilutions of each antibody were examined for their ability to bind to the RSPO1 expressing cells. The cells were stained with Phycoerythrin conjugated anti-IgG to reveal bound antibody. The cells were analyzed on a FACSCalibur instrument (BD Biosciences, San Jose, Calif.) and the data was processed using FlowJo software.

B2: RSPO3: full-length human RSPO3 ligated to a human Fc region (protein)
chain: QNASRGRRQRRMHPNVSQGCQGGCATCSDYNGCLSCKPRLFFALERIGMKQIGVCLSSCPSGYYGTRYPDINKCTKCKADCDTCFNKNFCTKCKSGFYLHLGKCLDNCPEGLEANNHTMECVSIVHCEVSEWNPWSPCTKKGKTCGFKRGTETRVREIIQHPSAKGNLCPPTNETRKCTVQRKKCQKGERGKKGRERKRKKPNKGESKEAIPDSKSLESSKEIPEQRENKQQQKKRKVQDKQKSVSVSTVH
binding to LGR5 expressed on the surface of HEK-293 cells [1]: bound

B3: 89M25: anti-RSPO1 monoclonal antibody; same heavy and light chain variable regions as 89M5 (antibody, V domains shown)
VH: EVQLQQSGPELVKPGASVKISCKTSGYTFTGYTMHWVRQSHGKTLEWIGGINPNNGGTTYNQNFKGKATLTVEKSSTTAYLELRSLTSEDSALYYCARKEFSDGYYFFAYWGQGTLVTVSA
VL: DIVMTQSHKFMSTSVGDRVNITCKASQDVIFAVAWYQQKPGQSPKLLIYWASTRHTGVPDRFTGSVSGTDYTLTISSVQAEDLALYYCQQHYSTPWTFGGGTKLEIK
blocking of RSPO1-induced β-catenin signaling [2]: blocked
blocking of binding of RSPO1 to LGR5 [3]: blocked
binding to RSPO1 (FACS) [4]: bound
reduction in tumor growth [5]: 25%

Other lines, results leading:

binding to LGR5 expressed on the surface of HEK-293 cells [1]: bound
B1: RSPO4: full-length human RSPO4 ligated to a human Fc region (protein)
chain: LNRRKKQVGTGLGGNCTGCIICSEENGCSTCQQRLFLFIRREGIRQYGKCLHDCPPGYFGIRGQEVNRCKKCGATCESCFSQDFCIRCKRQFYLYKGKCLPTCPPGTLAHQNTRECQGECELGPWGGWSPCTHNGKTCGSAWGLESRVREAGRAGHEEAATCQVLSESRKCPIQRPCPGERSPGQKKGRKDRRPRKDRKLDRRLDVRPRQPGLQP
modifications: left off: a dimerising Fc or GST
notes: full-length human RSPO4 ligated to a human Fc region

binding to human RSPO1 (FACS) [6]: bind
B4: h89M5-H2L2: humanized anti-RSPO1 antibody; heavy chain SEQ ID NO:68, light chain SEQ ID NO:69 (antibody)
heavy: QVQLVQSGAEVKKPGASVKVSCKTSGYTFTGYTMHWVRQAPGQRLEWMGGINPNNGGTTYNQNFKGRVTITRDTSASTAYMELSSLRSEDTAVYYCARKEFSDGYYFFAYWGQGTLVTVSSASTKGPSVFPLAPCSRSTSESTAALGCLVKDYFPEPVTVSWNSGALTSGVHTFPAVLQSSGLYSLSSVVTVPSSNFGTQTYTCNVDHKPSNTKVDKTVERKCCVECPPCPAPPVAGPSVFLFPPKPKDTLMISRTPEVTCVVVDVSHEDPEVQFNWYVDGVEVHNAKTKPREEQFNSTFRVVSVLTVVHQDWLNGKEYKCKVSNKGLPAPIEKTISKTKGQPREPQVYTLPPSREEMTKNQVSLTCLVKGFYPSDIAVEWESNGQPENNYKTTPPMLDSDGSFFLYSKLTVDKSRWQQGNVFSCSVMHEALHNHYTQKSLSLSPGK
light: DIQMTQSPSSLSASVGDRVTITCKASQDVIFAVAWYQQKPGKAPKLLIYWASTRHTGVPSRFSGSGSGTDYTLTISSLQPEDFATYYCQQHYSTPWTFGGGTKVEIKRTVAAPSVFIFPPSDEQLKSGTASVVCLLNNFYPREAKVQWKVDNALQSGNSQESVTEQDSKDSTYSLSNTLTLSKADYEKHKVYACEVTHQGLSSPVTKSFNRGEC
modifications: h89M5-H2L2 Heavy chain amino acid sequence; h89M5-H2L2 Light chain amino acid sequence

— patent US9644034B2, “Anti-RSPO2 antibodies and uses thereof” (OncoMed Pharmaceuticals, Inc., priority 2011, dated 2017)
